First the molecules themselves.
B1: TPR 5TU (parent)
chain: GGAUCUUCUCGAUCUAACAAAAAAGACAAAUCUGCCACAAAGCUUGAGAGCAUCUUCGGAUGCAGAGGCGGCAGCCUUCGGUGGCGCGAUAGCGCCAACGUUCUCAACUAUGACACGCAAAACGCGUGCUCCGUUGAAUGGAGUUUAUCAUG

Fewer inactive variants are shown than the library holds.

Variants of B1 are the subject of the data set. Briefly: polymerase ribozyme fitness, log enrichment relative to wild type (log ratio); higher = more active; in vitro selection for triplet polymerase activity. The gist of the method:
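Mutant libraries of each subunit of a heterodimeric triplet polymerase ribozyme were built by PCR and transcribed. Each library went through one round of in vitro selection in triplicate: annealing with biotinylated primer, partner subunit and triplets, frozen incubation at −7 °C, gel excision of extended constructs, streptavidin-bead capture and RT-PCR. Input and output libraries were Illumina-sequenced; only genotypes with ≥10 input reads and ≥1 read per output were kept. Fitness is log2(genotype enrichment/wild-type enrichment), using inverse-variance-weighted replicate averages.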
GGAUCUUCUCGAUCUAACAAAAAAGACAAAUCUGCCACAAAGCGUGAGAGCAUCUUCGGAUGCAGAGGCGGCAGCCUUCGGUGGCGCGAUAUCGCCAACGUUCUCAACUAUGACACGCAAAACGCGUGCUCCGUUGAAUGGAGUUUAUCAUG [U44G G92U]: the “polymerase ribozyme fitness (log ratio)” value is at most -4.2.
Regarding GGAUCUUCUCGAUCUAACAAAAAAGACAAAUCUGCCACAAAGCGUGAGAGCAUCUUCGGAUGCAGAGGCGGCAGCCUUCGGUGGCGCGAUAGCGCCAACGUUCUCAACUAUGACACGCAAAACGCGUGCUCCGCUGAAUGGAGUUUAUCAUG [U44G U134C], the “polymerase ribozyme fitness (log ratio)” value is -4.1.
To GGAUCUUCUCGAUCUAACAAAAAAGACAAAUCUGCCACAAAGCGUGAGAGCAUCUUCGGAUGCAGAGGCGGCUGCCUUCGGUGGUGCGAUAGCGCCAACGUUCUCAACGAUGACACGCAAAACGCGUGCUCCGUUGAAUGGAGUUUAUCAUG [U44G A73U C85U U109G] belongs at most -4.2; to GGAUCUUCUCGAUCUAACAAAAAAGACAAAUCUGCCACAAAGCGUGAGAGCAUCUUCCGAUGCAGAGGCGGCAGCCUUCGGUGGCGGGAUAGCGCCAACGUUCUCAACUAUGACACGCAAAACGCGUGCUCCGUUGAAUGGAGUUUAUCAUG [U44G G58C C87G], at most -4.2; to GGAUCUUCUCGAUCUAACAAAAAAGACAAAUCUGCCACAAAGCGUGAGAGCAUCUUCGGAUGCAGAGGCGGCAGGCUUCGGUGGCGCCAUAGCGCCAACGUUCUCAACUAUGACACGCAAAACGCGUGCUCCGUUGAAUGGAGUUUAUCAUG [U44G C75G G88C], at most -4.2.
To GGAUCUUCUCGAUCUAACAAAAAAGACAAAUCUGCCACAAAGCGUGAGAGCAUCUUCGGAUGCAGAUGCGGCAGCCUUCGGUGGCGCGAUUGCGCCAACGUUCUCAACUAUGACUCGCACAACGCGUGCUCCGUUGAAUGGAGUUUAUCAUG [U44G G67U A91U A115U A120C] belongs at most -4.2; to GGAUCUUCUCGAUCUAACAAAAAAGACAAAUCUGCCACAAAGCGUGAGAGCAUCUUCGCAUGCAGAGGCGGCAGCCUCCGGUGGCGCGAUAGCGCCAACGUUCUCAACUAUGACACUCAAAACGCGUGCUCCGUUGAAUGGACUUUAUCAUG [U44G G59C U78C G117U G143C], at most -4.2; to GGAUCUUCUCGAUCUAACAAAAAAGACAAAUCUGCCACAAAGCGUGAGAGCCUCUUCGGAUGCAGAGGCGGCAGCCCUCGGUAGCGCGAUAGCGCCAAAGUUCUCAACUAUGACACGAAAAACGCGUGCUCCGUUGAAUGGAGUGUAUCAUG [U44G A52C U77C G83A C99A C118A U145G], at most -4.2.
As to GGAUCUUCUCGAUCUAACAAAAAAGACAAAUCUGCCACAAAGCGUGAGAGCAUCUUCGGAUGCAGAGGCGGCAGCCUUCGGUGGCGCGAUAGCGCCAACGUUCUCAACUAUGACACGCAAAACGCGUGCUCCGUUGAAUGGACUUUAUCAUG [U44G G143C], the “polymerase ribozyme fitness (log ratio)” value is at most -4.2.
In the case of GGAUCUUCUCGAUCUAACAAAAAAGACAAAUCUGCCACAAAGCGUGAGAGCAUCUACGGAUGCAGAGGCGGCAGCCUUAGGUGGCGCGAUAGCGCCAACGUUCUCAACUAUGACACGCAAAACUCGUGCUCCGUUGAAUGGAGUUUAUCAUG [U44G U56A C79A G124U] it was at most -4.2; in that of GGAUCUUCUCGAUCUAACAAAAAAGACAAAUCUGCCACAAAGCUAGCGAGCAUCUUCGGAAGCAGAGGCGGCAGCCUUCGGUGGCGCGAUAACGCCAACGUUCUCAACUAUGAAACGCAAAAGGCGUGCUCCGUUGAAUGGAGUUGAUCAUG [U45A A47C U61A G92A C114A C123G U146G], at most -4.2; in that of GGAUCUUCUCGAUCUAACAAAAAAGACAAAUCUGCCACAAAGCGUGAGAGCAUCUUCGGAUGCAGAGGCGGCAGCCUUCGGUGGCGCGUUAGCGCCAACGUUCUCAACUAUGACACGCAAAACGCGUGCUCCGUUGAAUGGAGCUUAUCAUG [U44G A89U U144C], at most -4.2.
In the case of GGAUCUUCUCGAUCUAACAAAAAAGACAAAUCUGCCACAAAGCGUGAGAGUAUCUUCGGAUGCAGAGGCGGCAACCUUCGGUGGCGCGAUAGCCCCAACGUUCUCAACUAUGACACGCAUAACGCGUGCUCCGUUGAAUGGAGUUUAUGAUG [U44G C51U G74A G94C A120U C149G] it was at most -4.2; in that of GGAUCUUCUCGAUCUAACAAAAAAGACAAAUCUGCCACAAAGCGUGAUAGCAUCUUCGGAUGCAGAGGCGGCAGCCUUCGGUGGCACGAUAGCGCCAACCUUCUAAACUAUGACACGCAAAACGCAUGCUCCGCUGAAUGGAGUUUAUCAUG [U44G G48U G86A G100C C105A G126A U134C], at most -4.2.
As to GGAUCUUCUCGAUCUAACAAAAAAGACAAAUCUGCCACAAAGCGGGAGAGCAUCUUCGGAUGCAGAGGCGGGAGCCUUCGGUGGCGCGAUAGCGCCAACGUUCUCAACUAUGACACGCAAAACGCGUGCUCCGUUGAAUGGAGUUUAUCAUG [U44G U45G C72G], the “polymerase ribozyme fitness (log ratio)” value was at most -4.2.
To GGAUCUUCUCGAUCUAACAAAAAAGACAAAUCUGCCACAAAGCGUGAGAGCAUCUUCGGAUGCAGAGGCGGCAGCCUUCGGUGGCGCCAUAGCGCCAACGUUCUCAAGUAUGACACGCAAAACGCGUGCUCCGUUGAAUGGAGCUUAUUAUG [U44G G88C C108G U144C C149U] belongs at most -4.2.
To GGAUCUUCUCGAUCUAACAAAAAAGACAAAUCUGCCACAAAGCGUGAGAGCAUCUUCGACUGCAGAGGCGGCAGCCUUCGGUAGCGCGAUAGCGGCAACGUUGUCAACUAUGACACGCAAAACGCGUGCUCCGUUGAAUGGAGUUUAUCAUG [U44G G59A A60C G83A C95G C103G] belongs at most -4.2; to GGAUCUUCUCGAUCUAACAAAAAAGACAAAUCUGCCACAAAGCGUGAGAGCAUCUUCGGAUGCAGAGGCGGCAGCCUUCGGUGGCGCGAUAGCGCCAACGUUCUCAACUAUGACACGCAAAACGCGUGCUCCGUAGAAUGGAGUUUAUCAUG [U44G U135A], -3.83; to GGAUCUUCUCGAUCUAACAAAAAAGACAAAUCUGCCACAAAGCGUGAGAGCAUCUUCUGAUGCAGAGGCGGCAGCCUUCGGUGGCGCGAUAGCGCCAGCGUUCUCAACUAUGACACGCAAAACGCGUGCUCCGUUGAAUGGAGAUUAUCAUG [U44G G58U A98G U144A], at most -4.2.

(Values after the RNAGym collection of RNA variant scans (doi:10.1073/pnas.2313332121).)
